Residue numbers refer to the chain shown, from its start.
B1: Nanobody No. 5 (VHH)
VHH: QVQLQESGGGSVQAGGSLRLSCTVSGFSFDDSDMGWYRRAPGNECELVSGISRDGSTYYADSVKGRFTISQDNAKNWVYLQMNSLKPEDTAVYYCAAATYSDYVCDYWTQGTQVTVSS
notes: not shown: tags (HA, His) implied by anti-HA detection and nickel column
B2: Nanobody No. 31 (VHH)
VHH: QVQLQESGGGSVQAGETLRLSCTASGFTFNDSNMGWYRQAPGHECELVSTISSDGSTYYADSVKGRFTISQNNARNTVYLQMNSLKPEDTAVYYCAGDWGYELGICTSLDYWGQGTQVTVSS
notes: also called 31; not shown: tags (HA, His) implied by anti-HA detection and nickel column
B3: Nanobody No. 4 (VHH)
VHH: QVQLQESGGGLVQPGGSLRLSCTASRFTFDDSDMAWYRQAPGNECELVSIISSDGSTYYADSVKGRFTISLDNTKSTVYLQMNSLKPEDTAVYYCAAHPLHYELGTCAALDYWGRGTQVTVSS
notes: as for B1
B4: Nanobody No. 38 (VHH)
VHH: QVQLQESGGGSVQAGGSLRLSCAASGFTYTGYCMGWFRQAPGKEREGVATVDSDGDTSYADSVKGRFTISKDNAKNTLYLQMNSLKPEDTAMYYCAADFSRWHLCSTSLATLGYWGQGTQVTVSS
notes: also called 38; not shown: tags (HA, His) implied by anti-HA detection and nickel column
B5: Nanobody No. 6 (VHH)
VHH: QVQLQESGGGSVQAGETLRLSCTASGFTFDDSDMGWYRQAPGNECELVSHISSDGSTYYADSVKGRFTISQDNAKNTVFLQMNSLKPEDTAVYYCAADKDARGYELGTCESLDYWGRGTQVTVSS
notes: as for B1
B6: Nanobody No. 7 (VHH)
VHH: B5 VHH with H50T, F79Y
notes: as for B1
B7: Nanobody No. 27 (VHH)
VHH: QVQLQESGGGSVQAGETLRLSCTASGFTFDDSDMGWYRQAPGNECELVSTISSDGSTYYADSVKGRFTISQDNAKNTVYLQMNSLKPEDTAVYYCAADHGGGYELGTCAALDYWGRGTQVTVSS
notes: also called 27; not shown: tags (HA, His) implied by anti-HA detection and nickel column
B8: Nanobody No. 29 (VHH)
VHH: QVQLQESGGGSVQAGGSLRLSCTASGFTFDDLDMRWYRQAPGNECELVSIINSDGRTYYADSVKGRFAISQNNAKNTVYLQMNSLKPEDTAVYYCAADQHRYGLGTCEALDYWGRGTQVTVSS
notes: also called 29; not shown: tags (HA, His) implied by anti-HA detection and nickel column
B9: Nanobody No. 19 (VHH)
VHH: QVQLQESGGGSVQAGGSLRLSCTASGFTFDDSDSDMGWYRQAPGNECELVSSISSDGSTYYADSVKGRFTISQDNAKNTVYLQMNSLKPEDTAVYYCAAINSGYELGTCESLDYWGRGTQVTVSS
notes: also called 19; not shown: tags (HA, His) implied by anti-HA detection and nickel column
B10: Nanobody No. 24 (VHH)
VHH: B9 VHH with G16E, S17T
notes: also called 24; not shown: tags (HA, His) implied by anti-HA detection and nickel column
B11: Nanobody No. 21 (VHH)
VHH: B9 VHH with S11L, A14P, G15R
notes: also called 21; not shown: tags (HA, His) implied by anti-HA detection and nickel column
B12: Nanobody No. 25 (VHH)
VHH: B9 VHH with G16E, S17T, L87P
notes: also called 25; not shown: tags (HA, His) implied by anti-HA detection and nickel column
B13: Nanobody No. 18 (VHH)
VHH: QVQLQESGGGSVQAGQTLRLSCTASGFTFDDSDMAWYRQAPGNECELVSKMRSDGSTYYADSVKGRFTISQDNAKNTVYLQMNSLKPEDTAVYYCAEDLPYGLGTCTSLDYWGRGTQVTVSS
notes: also called 18; not shown: tags (HA, His) implied by anti-HA detection and nickel column
B14: Nanobody No. 3 (VHH)
VHH: QVQLQESGGGSVQAGGSLRLSCTASGFTFDDSDVRWYRQAPGRECKLVSSISSDRSAYYEDSVKGRFTISQDNAKNTVYLQMNSLKPEDTAVYYCAAHPLHYELGTCAALDYWGRGTQVTVSS
notes: as for B1
B15: Nanobody No. 39 (VHH)
VHH: QVQLQESGGGSVQAGGSLRLSCAASGYTYTGYCMGWFRQAPGKEREGVATIDSDGDTSYADSVKGRFTISKDNAKNTLYLQMNSLKPEDTAMYYCAADFRRWHLCSSSFREDGMDYWGKGTQVTVSS
notes: also called 39; not shown: tags (HA, His) implied by anti-HA detection and nickel column
B16: Nanobody No. 40 (VHH)
VHH: B15 VHH with G16E, S17T, P41T, S58T, A74G, R110Q, D112Y, G113D
notes: also called 40; not shown: tags (HA, His) implied by anti-HA detection and nickel column
B17: Nanobody No. 33 (VHH)
VHH: QVQLQESGGGSVQAGGSLRLSCTASGFTFDDVDMGWYRQAPGNECELVSTISSDGSTYYADSVKGRFTISQDNAKNTVYLQMNSLKPEDTAMYYCAAARYSDYEGMCGYWSQGTQVTVSS
notes: also called 33; not shown: tags (HA, His) implied by anti-HA detection and nickel column
B18: Nanobody No. 37 (VHH)
VHH: B17 VHH with G16E, S17T, A24V, V32A, E44Q, S56I, I69V
notes: also called 37; not shown: tags (HA, His) implied by anti-HA detection and nickel column
B19: Nanobody No. 36 (VHH)
VHH: B17 VHH with G16E, T23R, A24T, T28S
notes: also called 36; not shown: tags (HA, His) implied by anti-HA detection and nickel column
B20: Nanobody No. 35 (VHH)
VHH: B17 VHH with S11L, A14P, T23A
notes: also called 35; not shown: tags (HA, His) implied by anti-HA detection and nickel column
B21: Nanobody No. 34 (VHH)
VHH: B17 VHH with A24V
notes: also called 34; not shown: tags (HA, His) implied by anti-HA detection and nickel column
B22: Nanobody No. 32 (VHH)
VHH: B17 VHH with P41S
notes: also called 32; not shown: tags (HA, His) implied by anti-HA detection and nickel column
B23: Nanobody No. 12 (VHH)
VHH: QVQLQESGGGSVQAGETLRLSCTASGFTFDDSDMGWYRQAPGNECELVSTISSDGSTYYADSVKGRFTISQDNAKNTVYLQMNSLKPEDTAVYYCAADGHKYELGTCAALDYWGRGTQVTVSS
notes: also called 12; not shown: tags (HA, His) implied by anti-HA detection and nickel column
B24: Nanobody No. 14 (VHH)
VHH: B23 VHH with T50R, D98L, G99E, H100W, K101E, A108E, R115Q
notes: also called 14; not shown: tags (HA, His) implied by anti-HA detection and nickel column
B25: Nanobody No. 16 (VHH)
VHH: B23 VHH with E16G, T17S, G35V, T50R, D98L, G99E, H100W, K101E, A108E, R115Q
notes: also called 16; not shown: tags (HA, His) implied by anti-HA detection and nickel column
B26: Nanobody No. 11 (VHH)
VHH: B23 VHH with T50H, D54G, H100S, K101N
notes: also called 11; not shown: tags (HA, His) implied by anti-HA detection and nickel column
B27: Nanobody No. 2 (VHH)
VHH: B23 VHH with T77A, D98H, G99P, H100L, K101H
notes: as for B1
B28: Nanobody No. 8 (VHH)
VHH: B23 VHH with D31E, D33V, A60S, D61N, G99D, K101T, A108E, D111N
notes: as for B1
B29: Nanobody No. 20 (VHH)
VHH: QVQLQESGGGSVQAGGSLRLSCTASGFTFDDSVMGWFRKAPGNECELVSTISSDGSTYYADSVKGRFTISQDNAKNTVYLQMNNLKPEDTAVYYCAAINSGYELGTCESLDYWGRGTQVTVSS
notes: also called 20; not shown: tags (HA, His) implied by anti-HA detection and nickel column
B30: Nanobody No. 15 (VHH)
VHH: QVQLQESGGGSVQAGGSLRLSCTASRFTFDDSDMGWYRQAPGNECELVSTISSDGATYYANSVKGRFTISQDNAANTVYLQMNSLKPEDTAVYYCAALEWEYELGTCEALDYWGQGTQVTVSS
notes: also called 15; not shown: tags (HA, His) implied by anti-HA detection and nickel column
B31: Nanobody No. 30 (VHH)
VHH: B8 VHH with G16E, S17T, L32S, R35G, I50T, N52S
notes: also called 30; not shown: tags (HA, His) implied by anti-HA detection and nickel column
B32: Nanobody No. 1 (VHH)
VHH: B23 VHH with D98H, G99P, H100L, K101H
notes: as for B1
B33: Nanobody No. 28 (VHH)
VHH: QVQLQESGGGLVQPGGSLRLSCAASGFTFGDSGMGWYRQAPGNECELVSSVSSDGSTYYADSVKGRFTISQDNAKNTVYLRMNSLKPEDTAVYYCAADDHKYELGTCEALDYWGRGTQVTVSS
notes: also called 28; not shown: tags (HA, His) implied by anti-HA detection and nickel column

Columns and labels:
[1] = target: T1, human Her2 (ECD)-Fc protein (human, UniProt P04626 23-652); experiment: PE-ELISA, crude extract on antigen-coated plate
T1 construct: extracellular domain; Made in HEK293F cells; also called hHer2 (ECD)-Fc antigen; Her2 (ECD)-Fc antigen; not shown: TEV restriction site at the C-terminal of hHer2 (ECD); IgG1 Fc of the pFUSE-IgG1 vector
Description: (§1) (1) 10 μg Her2 (ECD)-Fc antigen (10 μg Fc in NaHCO₃ as control) dissolved in 100 mM NaHCO₃ (pH 8.2) was coupled to a NUNC plate then incubated at 4° C. overnight.
(§2) (5) The unbound antibody was washed off with PBST.
(§3) (6) When the OD value of the sample was over 3 times of the OD value of the control sample (Ratio+/−>3), the tested sample was determined to be a positive clone. […] Then all the positive clones were transferred to LA medium for plasmid extraction and sequencing.

[2] = target: T1, human Her2 (ECD)-Fc protein; experiment: PE-ELISA, A405 of antigen well over control well
Description: as §1, §2, §3

Row | Binder | A405+ [1] [A405] | Ratio(+/-) [2]
1 | B1 | 1.1 | 12.7
2 | B2 | 1.65 | 21.4
3 | B3 | 1.97 | 21.2
4 | B4 | 2.14 | 21.8
5 | B5 | 2.14 | 23.4
6 | B6 | 2.24 | 27.4
7 | B7 | 1.66 | 20.5
8 | B8 | 1.48 | 18.8
9 | B9 | 1.77 | 19.6
10 | B10 | 2.68 | 23.7
11 | B11 | 2.09 | 20.3
12 | B12 | 1.97 | 22.4
13 | B13 | 1.59 | 19.2
14 | B14 | 1.31 | 13
15 | B15 | 1.86 | 17.8
16 | B16 | 1.57 | 19.1
17 | B17 | 2.05 | 21.3

Row | Binder | A405+ [1] [A405] | Ratio(+/-) [2]
18 | B18 | 2.1 | 19.6
19 | B19 | 2.22 | 21.6
20 | B20 | 1.99 | 21
21 | B21 | 2.26 | 20
22 | B22 | 2.36 | 25.3
23 | B23 | 2.18 | 25.6
24 | B24 | 1.96 | 24.4
25 | B25 | 1.79 | 23.5
26 | B26 | 1.88 | 25.5
27 | B27 | 1.53 | 19.3
28 | B28 | 2.56 | 28
29 | B29 | 1.47 | 10.2
30 | B30 | 2.27 | 26.1
31 | B31 | 2.31 | 23.9
32 | B32 | 1.72 | 22.3
33 | B33 | 1.86 | 23.3

Reference: US20230263916A1 (NANOMAB TECHNOLOGY, published 2023)
